Like-named read-outs stand apart in the source and are kept apart here.
Tests used:
[1] = target: T1, anti-CD28 scFv (VH - linker 1 - VL) (biotinylated (site not stated)); assay: phage ELISA as above; wells pre-incubated with soluble CD28 (competitor)
[2] = target: T1, anti-CD28 scFv (VH - linker 1 - VL); assay: phage ELISA; biotinylated anti-CD28 scFv on neutravidin plate, clonal phage supernatant, anti-M13-HRP;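 further: before the phage were added, wells were pre-incubated with soluble CD28 protein in blocking buffer, or with blocking buffer alone, and were not washed in between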
[3] = target: T2, PSMA Fab; assay: competition ELISA; peptide 0-100 µM with 0.3 nM PSMA Fab on plate-captured biotinylated PSMA
T2 construct: also called 006 PSMA Fab; anti-PSMA Fab

[4] = target: T3, Anti-CD28 scFv (VH - linker 1 - VL) (biotinylated (site not stated)); assay: phage ELISA; biotinylated anti-CD28 scFv on neutravidin plate, clonal phage supernatant, anti-M13-HRP;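 further: before the phage were added, wells were pre-incubated with soluble CD28 protein in blocking buffer, or with blocking buffer alone, and were not washed in between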
T3 construct: Biotinylated anti-CD28 scFv captured on neutravidin coated plates in the panning ELISA
T3 sequence (scFv, as listed by the source): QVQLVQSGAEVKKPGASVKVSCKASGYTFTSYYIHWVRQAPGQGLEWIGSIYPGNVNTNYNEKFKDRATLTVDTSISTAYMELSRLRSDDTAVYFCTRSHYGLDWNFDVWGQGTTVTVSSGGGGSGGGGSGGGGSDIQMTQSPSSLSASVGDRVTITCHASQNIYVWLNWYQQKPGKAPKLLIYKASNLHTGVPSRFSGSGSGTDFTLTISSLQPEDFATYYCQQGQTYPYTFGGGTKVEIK

[5] = target: T3, Anti-CD28 scFv (VH - linker 1 - VL); assay: phage ELISA as above; wells pre-incubated with soluble CD28 as competitor;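 further: crude clonal phage supernatants tested, with bound phage detected by HRP-conjugated anti-M13 antibody, and reference wells given blocking buffer without CD28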
Protocol: Clonal phage were harvested as crude supernatants and screened via standard enzyme linked immunosorbent assays (ELISAs). […] Prior to the addition of clonal phage, wells were incubated with blocking buffer and CD28 soluble protein or blocking buffer alone. Without washing or aspirating, clonal phage supernatants were then added to the wells and incubated for a short time. Wells were then washed followed by detection of bound phage using a horse radish peroxidase conjugated anti-M13 antibody.

[6] = target: T2, PSMA Fab; assay: competition ELISA; peptide 0-100 µM with 0.3 nM PSMA Fab on plate-captured biotinylated PSMA; remark: listed apart in the source

T1 sequence (scFv, as listed by the source): as above

Binder	CD28 scFv signal in presence of CD28 [1]	CD28 scFv signal [2]	also measured
MDWCPRNLWHECFA [Phage-342 clonal phage peptide MDWCPRNLWHECFA]	0.175	1.97	–
MDWCPRPLWHECFA [Phage-359 clonal phage peptide MDWCPRPLWHECFA]	0.138	1.44	–
MDWCPMNLWHECFA [Phage-351 clonal phage peptide MDWCPMNLWHECFA]	0.16	1.74	–
MNWCPMHLWAECFN [Phage-363 clonal phage peptide MNWCPMHLWAECFN]	0.14	1.39	–
TTHVCIPSWMCSGF (From the Peptide-180 optimisation phage library) [Peptide-280]	–	–	IC50 [3]: 6.65 µM
MDWCPRILWHECFS [Phage-362 clonal phage peptide MDWCPRILWHECFS]	0.174	1.39	–
TAHHCKPAWMCTGF (From the Peptide-180 optimisation phage library) [Peptide-266]	–	–	IC50 [3]: 1.81 µM
MDWCPRDLWTQCFF [Phage-343 clonal phage peptide MDWCPRDLWTQCFF]	0.119	1.93	–
MDWCPRFLWDVCFN (Clonal phage of the Peptide-9 library; also called the position column gives F at position 7)) [Phage-330]	–	–	CD28 scFv signal [4]: 2.14; CD28 scFv signal in presence of CD28 [5]: 0.309
PEHLCLPRWMCEGF (From the Peptide-180 optimisation phage library) [Peptide-278]	–	–	IC50 [3]: 2.4 µM
LHVYCVPEWMCAGF (From the Peptide-180 optimisation phage library) [Peptide-272]	–	–	IC50 [3]: 1.92 µM
PERLCTPPWMCLGF (From the Peptide-180 optimisation phage library) [Peptide-287]	–	–	IC50 [3]: 2.22 µM
MHWCPRHLWSECFN [Phage-361 clonal phage peptide MHWCPRHLWSECFN]	0.478	1.43	–
MDWCPRHLWDECFY (Clonal phage of the Peptide-9 library) [Phage-331]	–	–	CD28 scFv signal [4]: 2.13; CD28 scFv signal in presence of CD28 [5]: 0.146
AEVKCIPQWMCQGF (From the Peptide-180 optimisation phage library) [Peptide-265]	–	–	IC50 [3]: 1.78 µM
VQIQCRPAWMCLGF (From the Peptide-180 optimisation phage library) [Peptide-264]	–	–	IC50 [3]: 1.14 µM
MDWCPMFLWHECFS [Phage-360 clonal phage peptide … (as printed)]	0.193	1.44	–
MDWCPIHLWYECFN [Phage-352 clonal phage peptide MDWCPIHLWYECFN]	0.203	1.73	–
YERACIPNWICEGF (From the Peptide-180 optimisation phage library) [Peptide-279]	–	–	IC50 [3]: 5.18 µM
MDWCPKPLWHVCFA [Phage-337 clonal phage peptide MDWCPKPLWHVCFA]	0.152	2.02	–
MDWCPRALWNVCFA (Clonal phage of the Peptide-9 library; also called the position column gives N at position 14)) [Phage-329]	–	–	CD28 scFv signal [4]: 2.14; CD28 scFv signal in presence of CD28 [5]: 0.249
MDWCPTDLWHECFA (Clonal phage of the Peptide-9 library) [Phage-333]	–	–	CD28 scFv signal [4]: 2.07; CD28 scFv signal in presence of CD28 [5]: 0.154
MDWCPRHLWVHCFS [Phage-344 clonal phage peptide MDWCPRHLWVHCFS]	0.173	1.91	–
IDWCPRALWDACLA (Clonal phage of the Peptide-9 library) [Phage-332]	–	–	CD28 scFv signal [4]: 2.1; CD28 scFv signal in presence of CD28 [5]: 0.164
LDWCPRHLWALCFN [Phage-349 clonal phage peptide LDWCPRHLWALCFN]	0.24	1.78	–
IDWCPLHLWHECYH [Phage-353 clonal phage peptide IDWCPLHLWHECYH]	0.182	1.69	–

Binder	CD28 scFv signal in presence of CD28 [1]	CD28 scFv signal [2]	also measured
LEPLCVPRWMCVGF (From the Peptide-180 optimisation phage library) [Peptide-273]	–	–	IC50 [3]: 0.9 µM
MDWCPRLLWHECFN [Phage-357 clonal phage peptide MDWCPRLLWHECFN]	0.109	1.6	–
MAWCPWYLWDECFN [Phage-348 clonal phage peptide MAWCPWYLWDECFN]	0.267	1.81	–
MDWCPMYLWDECFF [Phage-356 clonal phage peptide MDWCPMYLWDECFF]	0.178	1.65	–
VLKWCRPAWMCEVL [Peptide-216]	–	–	IC50 [6]: 2.91 µM
MDWCPWFLWNECFN [Phage-350 clonal phage peptide MDWCPWFLWNECFN]	0.279	1.77	–
IVPLCKPAWMCKLF (From the Peptide-180 optimisation phage library) [Peptide-262]	–	–	IC50 [3]: 1.3 µM
ITPICKPAWICSGF (From the Peptide-180 optimisation phage library) [Peptide-276]	–	–	IC50 [3]: 3.46 µM
EEPLCRPVWMCEGF (From the Peptide-180 optimisation phage library) [Peptide-269]	–	–	IC50 [3]: 9.14 µM
VGKLCVPEWMCVGL [Peptide-217]	–	–	IC50 [6]: 2.49 µM
MDWCPRTLWDQCFF [Phage-339 clonal phage peptide MDWCPRTLWDQCFF]	0.314	1.99	–
MDWCPRFLWNECFY [Phage-338 clonal phage peptide MDWCPRFLWNECFY]	0.287	2	–
WEKLCTPAWMCVGF [Peptide-214]	–	–	IC50 [6]: 3.54 µM
MSWCPIDLWSECFA [Phage-340 clonal phage peptide MSWCPIDLWSECFA]	0.148	1.99	–
VNHWCVPTWMCAGF (From the Peptide-180 optimisation phage library) [Peptide-281]	–	–	IC50 [3]: 1.02 µM
MDWCPRHLWDECFN [Phage-341 clonal phage peptide MDWCPRHLWDECFN]	0.268	1.98	–
MDWCPRYLWLECFN [Phage-354 clonal phage peptide MDWCPRYLWLECFN]	0.368	1.69	–
YFVQCRPAWMCEGF (From the Peptide-180 optimisation phage library) [Peptide-261]	–	–	IC50 [3]: 1.3 µM
MDWCPRHLWHACFS [Phage-346 clonal phage peptide MDWCPRHLWHACFS]	0.167	1.83	–
MDWCPRYLWDECFS (Clonal phage of the Peptide-9 library) [Phage-334]	–	–	CD28 scFv signal [4]: 2.06; CD28 scFv signal in presence of CD28 [5]: 0.164
MDWCPRALWDHCFN (Clonal phage of the Peptide-9 library) [Phage-328]	–	–	CD28 scFv signal [4]: 2.15; CD28 scFv signal in presence of CD28 [5]: 0.293
LEKLCIPAWMCEWL [Peptide-215]	–	–	IC50 [6]: 2.94 µM
MDWCPRFLWDYCFA (Clonal phage of the Peptide-9 library) [Phage-335]	–	–	CD28 scFv signal [4]: 2.03; CD28 scFv signal in presence of CD28 [5]: 0.207
MDFCPRFLWHECFN [Phage-345 clonal phage peptide MDFCPRFLWHECFN]	0.225	1.91	–
MDWCPRDLWNWCFN [Phage-336 clonal phage peptide MDWCPRDLWNWCFN]	0.39	2.03	–
